Assays:
[1] = biological target: T1, Wildtype E. coli full-length DnaK (E. coli, UniProt P0A6Y8 1-638); assay: not stated; data not shown; nucleotide-free DnaK/GrpE
T1 construct: Escherichia coli Hsp70 DnaK, wildtype, full length; 2H, ILV 13C-methyl labelled and nucleotide free in the NMR experiments

[2] = biological target: T2, DnaK nucleotide-binding domain NBD^1–392 T199A (E. coli, UniProt P0A6Y8 1-392, T199A); assay: NMR titration; HMQC spectra of 2H, 13C-methyl ILV labelled protein, 25 °C; nucleotide free; 40 μM NBD^1–392 T199A plus 40 μM GrpE or truncated variants, or 60 μM DnaK plus 80 μM GrpE or truncated variants; conditions: both partners purified
T2 construct: Nucleotide free unless specified; Used unlabelled in SPR and 2H-15N labelled or 2H, ILV 13C-methyl labelled in NMR; also called DnaK NBD; wildtype NBD

[3] = biological target: T1, Wildtype E. coli full-length DnaK; assay: as above; conditions: both partners purified
DnaK NBD^1–392 Y285R = DnaK NBD^1–392 Y285R (E. coli, UniProt P0A6Y8 1-392, T199A | Y285R); assay: SPR; Biacore T-200, NTA sensor chip activated with Ni2+; N-terminal His-tagged GrpE immobilised; nucleotide-free NBD^1–392 T199A or its variants perfused at diverse concentrations; control without GrpE subtracted; equilibrium and kinetic fits; conditions: both partners purified
[4] = biological target: T2, DnaK nucleotide-binding domain …; assay: as above; conditions: both partners purified
[5] = biological target: DnaK NBD^1–392 Δ285 to 295 (E. coli, UniProt P0A6Y8 1-392, T199A | Δ285 to 295); assay: as above; conditions: both partners purified
DnaK NBD^1–392 Q260R = DnaK NBD^1–392 Q260R (E. coli, UniProt P0A6Y8 1-392, T199A | Q260R); assay: as above; conditions: both partners purified

B1: GrpE, full-length wildtype, His tag cleaved (natural protein, E. coli, UniProt P09372 1-197, looked up)
chain: MSSKEQKTPEGQAPEEIIMDQHEEIEAVEPEASAEQVDPRDEKVANLEAQLAEAQTRERDGILRVKAEMENLRRRTELDIEKAHKFALEKFINELLPVIDSLDRALEVADKANPDMSAMVEGIELTLKSMLDVVRKFGVEVIAETNVPLDPNVHQAIAMVESDDVAPGNVLGIMQKGYTLNGRTIRAAMVTVAKAKA
notes: Escherichia coli GrpE, nucleotide-exchange factor of DnaK, wildtype, full length; also called full-length GrpE; wildtype GrpE; source: E. coli BL21(DE3), purified (Ni-NTA, TEV cleavage, second Ni-NTA); not shown: His tag, N-terminal, cleaved
[1]
  Kd: 3 nM

B2: GrpE^69–197 (domain or fragment, E. coli, UniProt P09372 69-197, looked up)
chain: MENLRRRTELDIEKAHKFALEKFINELLPVIDSLDRALEVADKANPDMSAMVEGIELTLKSMLDVVRKFGVEVIAETNVPLDPNVHQAIAMVESDDVAPGNVLGIMQKGYTLNGRTIRAAMVTVAKAKA
notes: lacks the N-terminal disordered tail and a portion of the coiled-coil domain; 2H-labelled for the 1H-15N HSQC experiments; also called truncated GrpE variant; source: E. coli BL21(DE3), purified (Ni-NTA, TEV cleavage, second Ni-NTA)
[2]
  binding result: binds
[3]
  binding result: binds

B3: N-terminal His-tagged GrpE (natural protein, E. coli, UniProt P09372 1-197, looked up)
chain: B1 chain
notes: Held on the Ni-NTA sensor chip by its His tag in SPR; source: E. coli BL21(DE3), purified (Ni-NTA); not shown: His tag, N-terminal, kept
DnaK NBD^1–392 Y285R
  Kd: 120 ± 10 nM
  koff: 0.0178 s⁻¹
  kon: 24000 M⁻¹ s⁻¹
[4]
  Kd: 3.8 ± 0.6 nM
  koff: 0.021 s⁻¹
  kon: 5.9e+06 M⁻¹ s⁻¹
[5]
  Kd: 440 ± 60 nM
  koff: 0.0158 s⁻¹
  kon: 39000 M⁻¹ s⁻¹
DnaK NBD^1–392 Q260R
  Kd: 4.1 ± 0.3 nM
  koff: 0.0231 s⁻¹
  kon: 5.6e+06 M⁻¹ s⁻¹

— publication PMC10825016, “New insights into the structure and function of the complex between the Escherichia coli Hsp70, DnaK, and its nucleotide-exchange factor, GrpE” (The Journal of Biological Chemistry, 2023)
